Test results taken from PMC11184549.

How the values were obtained:
[1] = target: FITC-labeled DENV3 NS5 NLS_(C-term) peptide (dengue virus serotype 3 (DENV3)); assay: fluorescence polarisation
[2] = target: FITC-labeled DENV2 NS5 NLS_(C-term) peptide (dengue virus serotype 2 (DENV2)); assay: fluorescence polarisation

human IMPα3 lacking the IMPβ-binding domain (IMPαΔIBB), sequence (O00629 64-521, stated change not applied): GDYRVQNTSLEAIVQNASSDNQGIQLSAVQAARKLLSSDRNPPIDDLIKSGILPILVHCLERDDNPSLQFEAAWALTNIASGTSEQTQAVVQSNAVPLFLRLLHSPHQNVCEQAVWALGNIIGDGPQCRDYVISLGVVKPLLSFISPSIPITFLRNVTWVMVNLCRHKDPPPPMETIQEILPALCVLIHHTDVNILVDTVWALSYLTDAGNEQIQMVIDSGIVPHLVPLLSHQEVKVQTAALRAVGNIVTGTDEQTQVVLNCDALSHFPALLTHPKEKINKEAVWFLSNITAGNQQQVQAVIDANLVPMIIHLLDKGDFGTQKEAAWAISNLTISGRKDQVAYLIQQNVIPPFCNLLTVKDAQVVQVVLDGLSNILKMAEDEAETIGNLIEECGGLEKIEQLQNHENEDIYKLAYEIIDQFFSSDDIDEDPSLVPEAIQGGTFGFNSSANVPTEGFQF
human IMPα7 lacking the IMPβ-binding domain (IMPαΔIBB), sequence (O60684 73-536, stated change not applied): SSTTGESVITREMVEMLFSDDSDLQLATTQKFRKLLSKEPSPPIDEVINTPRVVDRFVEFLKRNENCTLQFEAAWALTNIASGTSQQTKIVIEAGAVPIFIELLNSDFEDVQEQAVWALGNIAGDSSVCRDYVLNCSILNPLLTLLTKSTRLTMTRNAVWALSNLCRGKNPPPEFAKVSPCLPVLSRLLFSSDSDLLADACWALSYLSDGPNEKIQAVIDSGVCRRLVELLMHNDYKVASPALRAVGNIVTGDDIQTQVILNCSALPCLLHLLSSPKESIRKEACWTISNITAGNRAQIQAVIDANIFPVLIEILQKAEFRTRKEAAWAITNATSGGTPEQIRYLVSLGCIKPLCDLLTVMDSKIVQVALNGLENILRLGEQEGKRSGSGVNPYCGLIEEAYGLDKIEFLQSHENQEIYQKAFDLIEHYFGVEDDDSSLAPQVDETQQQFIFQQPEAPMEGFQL

| Substance | Kd [1] [nM] | Kd [2] [nM] |
| --- | --- | --- |
| human IMPα1 lacking the IMPβ-binding domain (IMPαΔIBB) (from UniProt P52292 70-529) (domain or fragment) | 140 | 90 |
| human IMPα3 lacking the IMPβ-binding domain (IMPαΔIBB) (from UniProt O00629 64-521) (domain or fragment) | 150 | 80 |
| human IMPα7 lacking the IMPβ-binding domain (IMPαΔIBB) (from UniProt O60684 73-536) (domain or fragment) | 190 | 180 |
